# Measured values published in patent publication US20180155451A1 (published 2018).
# B1: GpH7-A5/GpH7-B3 variant L328_15Y/GpL16-k0 (antibody, human IgG1, kappa)
# heavy 1: not shown
# heavy 2: not shown
# light: DIVMTQSPLSLPVTPGEPASISCQASESLVHSNRNTYLHWYLQKPGQSPQLLIYKVSNRFSGVPDRFSGSGSGTDFTLKISRVEAEDVGVYYCSQNTHVPPTFGQGTKVEIERTVAAPSVFIFPPSDEQLKSGTASVVCLLNNFYPREAKVQWKVDNALQSGNSQESVTEQDSKDSTYSLSSTLTLSKADYEKHKVYACEVTHQGLSSPVTKSFNRGEC
# notes: heterodimerized antibody, mutation in one H chain only; also called L328_15Y He Ab
# B2: GpH7-A5/GpH7-B3 variant K334_09D/GpL16-k0 (antibody, human IgG1, kappa)
# heavy 1: not shown
# heavy 2: not shown
# light: B1 light
# notes: heterodimerized antibody, mutation in one H chain only; also called K334_09D He Ab
# B3: GpH7-A5/GpH7-B3 variant S267_14T/GpL16-k0 (antibody, human IgG1, kappa)
# heavy 1: not shown
# heavy 2: not shown
# light: B1 light
# notes: heterodimerized antibody, mutation in one H chain only; also called S267_14T He Ab
# B4: GpH7-A5/GpH7-B3 variant P271_19Q/GpL16-k0 (antibody, human IgG1, kappa)
# heavy 1: not shown
# heavy 2: not shown
# light: B1 light
# notes: heterodimerized antibody, mutation in one H chain only; also called P271_19Q He Ab
# B5: GpH7-A5/GpH7-B3 variant K326_04F/GpL16-k0 (antibody, human IgG1, kappa)
# heavy 1: not shown
# heavy 2: not shown
# light: B1 light
# notes: heterodimerized antibody, mutation in one H chain only; also called K326_04F He Ab
# B6: GpH7-A5/GpH7-B3 variant K326_20W/GpL16-k0 (antibody, human IgG1, kappa)
# heavy 1: not shown
# heavy 2: not shown
# light: B1 light
# notes: heterodimerized antibody, mutation in one H chain only; also called K326_20W He Ab
# B7: GpH7-A5/GpH7-B3 variant K334_18N/GpL16-k0 (antibody, human IgG1, kappa)
# heavy 1: not shown
# heavy 2: not shown
# light: B1 light
# notes: heterodimerized antibody, mutation in one H chain only; also called K334_18N He Ab
# B8: GpH7-A5/GpH7-B3 variant K334_05P/GpL16-k0 (antibody, human IgG1, kappa)
# heavy 1: not shown
# heavy 2: not shown
# light: B1 light
# notes: heterodimerized antibody, mutation in one H chain only; also called K334_05P He Ab
# B9: GpH7-A5/GpH7-B3 variant K334_07I/GpL16-k0 (antibody, human IgG1, kappa)
# heavy 1: not shown
# heavy 2: not shown
# light: B1 light
# notes: heterodimerized antibody, mutation in one H chain only; also called K334_07I He Ab
# B10: GpH7-A5/GpH7-B3 variant S239_10E/GpL16-k0 (antibody, human IgG1, kappa)
# heavy 1: not shown
# heavy 2: not shown
# light: B1 light
# notes: heterodimerized antibody, mutation in one H chain only; also called S239_10E He Ab
# B11: GpH7-A5/GpH7-B3 variant Q295_12R/GpL16-k0 (antibody, human IgG1, kappa)
# heavy 1: not shown
# heavy 2: not shown
# light: B1 light
# notes: heterodimerized antibody, mutation in one H chain only; also called Q295_12R He Ab
# B12: GpH7-A5/GpH7-B3 variant K326_09D/GpL16-k0 (antibody, human IgG1, kappa)
# heavy 1: not shown
# heavy 2: not shown
# light: B1 light
# notes: heterodimerized antibody, mutation in one H chain only; also called K326_09D He Ab
# B13: GpH7-A5/GpH7-B3 variant K326_07I/GpL16-k0 (antibody, human IgG1, kappa)
# heavy 1: not shown
# heavy 2: not shown
# light: B1 light
# notes: heterodimerized antibody, mutation in one H chain only; also called K326_07I He Ab
# B14: GpH7-A5/GpH7-B3 variant P271_18N/GpL16-k0 (antibody, human IgG1, kappa)
# heavy 1: not shown
# heavy 2: not shown
# light: B1 light
# notes: heterodimerized antibody, mutation in one H chain only; also called P271_18N He Ab
# B15: GpH7-A5/GpH7-B3 variant I336_16H/GpL16-k0 (antibody, human IgG1, kappa)
# heavy 1: not shown
# heavy 2: not shown
# light: B1 light
# notes: heterodimerized antibody, mutation in one H chain only; also called I336_16H He Ab
# B16: GpH7-A5/GpH7-B3 variant K326_10E/GpL16-k0 (antibody, human IgG1, kappa)
# heavy 1: not shown
# heavy 2: not shown
# light: B1 light
# notes: heterodimerized antibody, mutation in one H chain only; also called K326_10E He Ab
# B17: GpH7-A5/GpH7-B3 variant P271_08L/GpL16-k0 (antibody, human IgG1, kappa)
# heavy 1: not shown
# heavy 2: not shown
# light: B1 light
# notes: heterodimerized antibody, mutation in one H chain only; also called P271_08L He Ab
# B18: GpH7-A5/GpH7-B3 variant I336_15Y/GpL16-k0 (antibody, human IgG1, kappa)
# heavy 1: not shown
# heavy 2: not shown
# light: B1 light
# notes: heterodimerized antibody, mutation in one H chain only; also called I336_15Y He Ab
# B19: GpH7-A5/GpH7-B3 variant K334_04F/GpL16-k0 (antibody, human IgG1, kappa)
# heavy 1: not shown
# heavy 2: not shown
# light: B1 light
# notes: heterodimerized antibody, mutation in one H chain only; also called K334_04F He Ab
# B20: GpH7-A5/GpH7-B3 variant S324_09D/GpL16-k0 (antibody, human IgG1, kappa)
# heavy 1: not shown
# heavy 2: not shown
# light: B1 light
# notes: heterodimerized antibody, mutation in one H chain only; also called S324_09D He Ab
# B21: GpH7-A5/GpH7-B3 variant K326_03V/GpL16-k0 (antibody, human IgG1, kappa)
# heavy 1: not shown
# heavy 2: not shown
# light: B1 light
# notes: heterodimerized antibody, mutation in one H chain only; also called K326_03V He Ab
# B22: GpH7-A5/GpH7-B3 variant S298_09D/GpL16-k0 (antibody, human IgG1, kappa)
# heavy 1: not shown
# heavy 2: not shown
# light: B1 light
# notes: heterodimerized antibody, mutation in one H chain only; also called S298_09D He Ab
# B23: GpH7-A5/GpH7-B3 variant K334_08L/GpL16-k0 (antibody, human IgG1, kappa)
# heavy 1: not shown
# heavy 2: not shown
# light: B1 light
# notes: heterodimerized antibody, mutation in one H chain only; also called K334_08L He Ab
# B24: GpH7-A5/GpH7-B3 variant K334_15Y/GpL16-k0 (antibody, human IgG1, kappa)
# heavy 1: not shown
# heavy 2: not shown
# light: B1 light
# notes: heterodimerized antibody, mutation in one H chain only; also called K334_15Y He Ab
# B25: GpH7-A5/GpH7-B3 variant S267_10E/GpL16-k0 (antibody, human IgG1, kappa)
# heavy 1: not shown
# heavy 2: not shown
# light: B1 light
# notes: heterodimerized antibody, mutation in one H chain only; also called S267_10E He Ab
# B26: GpH7-A5/GpH7-B3 variant K326_06M/GpL16-k0 (antibody, human IgG1, kappa)
# heavy 1: not shown
# heavy 2: not shown
# light: B1 light
# notes: heterodimerized antibody, mutation in one H chain only; also called K326_06M He Ab
# B27: GpH7-A5/GpH7-B3 variant K334_19Q/GpL16-k0 (antibody, human IgG1, kappa)
# heavy 1: not shown
# heavy 2: not shown
# light: B1 light
# notes: heterodimerized antibody, mutation in one H chain only; also called K334_19Q He Ab
# B28: GpH7-A5/GpH7-B3 variant K334_14T/GpL16-k0 (antibody, human IgG1, kappa)
# heavy 1: not shown
# heavy 2: not shown
# light: B1 light
# notes: heterodimerized antibody, mutation in one H chain only; also called K334_14T He Ab
# B29: GpH7-A5/GpH7-B3 variant K334_03V/GpL16-k0 (antibody, human IgG1, kappa)
# heavy 1: not shown
# heavy 2: not shown
# light: B1 light
# notes: heterodimerized antibody, mutation in one H chain only; also called K334_03V He Ab
# B30: GpH7-A5/GpH7-B3 variant Q295_10E/GpL16-k0 (antibody, human IgG1, kappa)
# heavy 1: not shown
# heavy 2: not shown
# light: B1 light
# notes: heterodimerized antibody, mutation in one H chain only; also called Q295_10E He Ab
# Target: T1, FcγRIa extracellular domain with C-terminal His tag (human, UniProt P12314 16-292)
# T1 construct: extracellular domain; soluble analyte in Biacore; also called FcgRI; CD64
# T1 sequence (P12314 16-292): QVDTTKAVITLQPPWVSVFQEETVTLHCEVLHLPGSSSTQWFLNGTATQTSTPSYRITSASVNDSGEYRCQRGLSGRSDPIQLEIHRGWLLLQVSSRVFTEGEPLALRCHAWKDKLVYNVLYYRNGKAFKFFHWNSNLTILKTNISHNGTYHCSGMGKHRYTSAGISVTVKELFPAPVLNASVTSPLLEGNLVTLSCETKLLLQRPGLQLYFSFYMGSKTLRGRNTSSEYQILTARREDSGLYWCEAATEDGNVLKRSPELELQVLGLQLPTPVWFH
# Assay: SPR (Biacore), relative FcγRIa binding, GpH7-A5/GpH7-B3/GpL16-k0 (HeCon Ab) = 100
row,He/Con_1a,Binder
1,102 % of control,B1
2,106 % of control,B2
3,102 % of control,B3
4,103 % of control,B4
5,102 % of control,B5
6,103 % of control,B6
7,105 % of control,B7
8,104 % of control,B8
9,104 % of control,B9
10,105 % of control,B10
11,100 % of control,B11
12,103 % of control,B12
13,101 % of control,B13
14,103 % of control,B14
15,101 % of control,B15
16,104 % of control,B16
17,102 % of control,B17
18,103 % of control,B18
19,105 % of control,B19
20,104 % of control,B20
21,102 % of control,B21
22,106 % of control,B22
23,105 % of control,B23
24,105 % of control,B24
25,106 % of control,B25
26,102 % of control,B26
27,106 % of control,B27
28,105 % of control,B28
29,105 % of control,B29
30,103 % of control,B30
